Reference: article PMC2853022

Biological target: NS3h (helicase domain of HCV NS3) (Hepatitis C virus, Con 1b replicon …, UniProt Q9WMX2 1192-1657)
Experiment: stopped-flow fluorescence

Chain of NS3h (helicase domain of HCV NS3) (Q9WMX2 1192-1657): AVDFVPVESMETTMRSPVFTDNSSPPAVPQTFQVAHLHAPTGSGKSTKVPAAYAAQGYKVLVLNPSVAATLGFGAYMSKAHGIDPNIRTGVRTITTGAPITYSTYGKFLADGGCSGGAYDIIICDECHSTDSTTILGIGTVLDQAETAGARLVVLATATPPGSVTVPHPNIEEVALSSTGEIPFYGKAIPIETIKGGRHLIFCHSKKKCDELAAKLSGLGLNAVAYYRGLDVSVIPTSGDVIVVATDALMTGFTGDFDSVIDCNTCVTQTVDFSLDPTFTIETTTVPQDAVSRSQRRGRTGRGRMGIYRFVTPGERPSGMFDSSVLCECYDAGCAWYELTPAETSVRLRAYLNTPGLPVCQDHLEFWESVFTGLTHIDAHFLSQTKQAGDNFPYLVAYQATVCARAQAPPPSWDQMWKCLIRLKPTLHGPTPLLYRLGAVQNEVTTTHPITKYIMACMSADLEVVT

B1: 37:22-mer partial duplex (dsDNA)
DNA 1: GACTGACGCTAGGCTGACAGGATTTTTTTTTTTTTTT
DNA 2: TCCTGTCAGCCTAGCGTCAGTC
Question: Does B1 bind?
Answer: binds
